Measurements from patent US20150037348A1 (AbbVie / Abbott, published 2015).
Positions count from the first letter of the chain named.

B1: 78-35 (scFv, V domains shown)
VH: QVQLVQSGGGVVQPGRSLRLSCAASGFTFSSYGMHWVRQAPGKGLEWVAFIRYDGSNKYYADSVKGRFTISRDNSKNTLYLQMKSLRAEDTAVYYCTTSGSYDYWGQGTMVTVSS
VL: SYVLTQPPSVSGTPGQRVTISCSGGRSNIGSNTVKWYQQLPGTAPKLLIYGNDQRPSGVPDRFSGSKSGTSASLAITGVQAEDEADYYCQSYDSSLTGSRVFGTGTKVTVL
notes: scFv
B2: 101-11 IgG1 (antibody, V domains shown)
VH: B1 VH with S99H, Y102H, Y104N
VL: B1 VL with S94R, S95G, L96F
notes: IgG1
B3: 136-24 (scFv, V domains shown)
VH: B1 VH with S99H, Y102H, Y104N
VL: B1 VL with S94N, S95A, L96V, G98A, R100K
notes: scFv
B4: 149-9 (scFv, V domains shown)
VH: B1 VH with T97K, S99H, Y102H, Y104N, Q107H
VL: B1 VL with D93E, S94R, S95G, L96F, R100M
notes: scFv
B5: 170-23 (scFv, V domains shown)
V domain 1: B1 VH with S99H, Y102H, Y104N
V domain 2: B1 VL with S94R, S95G, L96F, S99A, F102W
notes: scFv
B6: 170-25 (scFv, V domains shown)
VH: B1 VH with S99H, Y102Q, Y104T
VL: B1 VL with T97R
notes: scFv
B7: 99-B11 (scFv, V domains shown)
VH: B1 VH with T97K, S99H, Y102H, Y104N
VL: B1 VL with S95G, L96Y
notes: scFv clone
B8: 99-C11 (scFv, V domains shown)
VH: B1 VH with T97K, S99H, Y102H, Y104N
VL: B1 VL with S95G, L96F
notes: scFv clone
B9: 99-E9 (scFv, V domains shown)
VH: B1 VH with T97K, S99H, Y102H, Y104N
VL: B1 VL with S95G, L96F
notes: scFv clone
B10: 99-F11 (scFv, V domains shown)
VH: B1 VH with T97K, S99H, Y102H, Y104N
VL: B1 VL with S95G, L96F
notes: scFv clone
B11: 99-G7 (scFv, V domains shown)
VH: B1 VH with T97K, S99H, Y102H, Y104N
VL: B1 VL with D93L, S94K, L96R, T97A, G98F
notes: scFv clone
B12: 99-G11 (scFv, V domains shown)
VH: B1 VH with T97K, S99H, Y102H, Y104N
VL: B1 VL with S95R, L96F
notes: scFv clone
B13: L3.3R3M-A3 (scFv, V domains shown)
VH: B1 VH with T97K, S99H, Y102H, Y104N
VL: B1 VL with S94R, S95G, L96F, R100M
notes: scFv clone
B14: L3.3R3M-B3 (scFv, V domains shown)
VH: B1 VH with T97K, S99H, Y102H, Y104N
VL: B1 VL with S94R, S95G, L96F, R100M
notes: scFv clone
B15: L3.3R3M-G7 (scFv, V domains shown)
VH: B1 VH with T97K, S99H, Y102H, Y104N
VL: B1 VL with S94R, S95G, L96F, R100M
notes: scFv clone
B16: L3.3R3M-G8 (scFv, V domains shown)
VH: B1 VH with T97K, S99H, Y102H, Y104N
VL: B1 VL with S94R, S95G, L96S, T97Y, G98P, S99A, R100L, V101R
notes: scFv clone
B17: L3.3R3M-H6 (scFv, V domains shown)
VH: B1 VH with T97K, S99H, Y102H, Y104N
VL: B1 VL with S94R, S95G, L96N, T97W, G98P, S99N, R100S, V101N
notes: scFv clone
B18: L3.3R3M-H11 (scFv, V domains shown)
VH: B1 VH with T97K, S99H, Y102H, Y104N
VL: B1 VL with S94R, S95G, L96M, T97I, G98P, S99A, R100L, V101T
notes: scFv clone
B19: B7 (scFv, V domains shown)
VH: B1 VH with T97K, S99H, Y102H, Y104N
VL: B1 VL with S94R, S95G, L96D, T97S, G98N, S99H, R100D, V101L
notes: scFv
B20: B8 (scFv, V domains shown)
VH: B1 VH with T97K, S99H, Y102H, Y104N
VL: B1 VL with S94R, S95G, L96H, G98A, S99H, R100L, V101Y
notes: scFv
B21: B9 (scFv, V domains shown)
VH: B1 VH with T97K, S99H, Y102H, Y104N
VL: B1 VL with S94R, S95G, L96R, T97A, G98A, S99H, R100P, V101Q
notes: scFv
B22: B10 (scFv, V domains shown)
VH: B1 VH with T97K, S99H, Y102H, Y104N
VL: B1 VL with S94R, S95G, T97S, G98D, R100P, V101L
notes: scFv
B23: B11 (scFv, V domains shown)
VH: B1 VH with T97K, S99H, Y102H, Y104N
VL: B1 VL with S94R, S95G, L96I, G98P, S99G, R100L, V101A
notes: scFv
B24: C3 (scFv, V domains shown)
VH: B1 VH with T97K, S99H, Y102H, Y104N
VL: B1 VL with S95G, L96V, T97D, G98P, S99G, R100P, V101Y
notes: scFv
B25: C5 (scFv, V domains shown)
VH: B1 VH with T97K, S99H, Y102H, Y104N
VL: B1 VL with S94R, S95G, L96P, T97H, G98T, S99Q, R100P, V101T
notes: scFv
B26: C6 (scFv, V domains shown)
VH: B1 VH with T97K, S99H, Y102H, Y104N
VL: B1 VL with S94R, S95G, L96Q, G98P, R100I, V101T
notes: scFv
B27: C7 (scFv, V domains shown)
VH: B1 VH with T97K, S99H, Y102H, Y104N
VL: B1 VL with S94R, S95G, L96I, T97P, G98T, R100Y, V101L
notes: scFv
B28: C8 (scFv, V domains shown)
VH: B1 VH with T97K, S99H, Y102H, Y104N
VL: B1 VL with S95G, L96T, T97S, G98N, S99L, R100L, V101P
notes: scFv
B29: C9 (scFv, V domains shown)
VH: B1 VH with T97K, S99H, Y102H, Y104N
VL: B1 VL with S94R, S95G, L96P, G98H, S99L, R100P, V101H
notes: scFv
B30: C12 (scFv, V domains shown)
VH: B1 VH with T97K, S99H, Y102H, Y104N
VL: B1 VL with S94R, S95G, T97R, G98V, S99Q, R100A, V101P
notes: scFv
B31: M2 A4 (scFv, V domains shown)
VH: B1 VH with T97K, S99H, Y102H, Y104N
VL: B1 VL with S95G, L96F, T97P
notes: scFv
B32: M2 B4 (scFv, V domains shown)
VH: B1 VH with T97K, S99H, Y102H, Y104N
VL: B1 VL with S94I, S95G
notes: scFv
B33: M2 C3 (scFv, V domains shown)
VH: B1 VH with T97K, S99H, Y102H, Y104N
VL: B1 VL with S94T, S95G
notes: scFv

Target: T1, human IL-12 (human, UniProt P29459 23-219; P29460 23-328)
T1 construct: recombinant human IL-12 heterodimer (p35/p40, disulfide-linked); also called hIL-12; rhIL-12
T1 sequence (looked up) 1: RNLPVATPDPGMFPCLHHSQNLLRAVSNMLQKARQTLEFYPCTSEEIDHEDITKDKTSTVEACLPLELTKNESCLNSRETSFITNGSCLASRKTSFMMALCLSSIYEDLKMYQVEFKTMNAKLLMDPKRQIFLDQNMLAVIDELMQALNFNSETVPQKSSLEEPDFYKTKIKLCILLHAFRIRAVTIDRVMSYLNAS
T1 sequence (looked up) 2: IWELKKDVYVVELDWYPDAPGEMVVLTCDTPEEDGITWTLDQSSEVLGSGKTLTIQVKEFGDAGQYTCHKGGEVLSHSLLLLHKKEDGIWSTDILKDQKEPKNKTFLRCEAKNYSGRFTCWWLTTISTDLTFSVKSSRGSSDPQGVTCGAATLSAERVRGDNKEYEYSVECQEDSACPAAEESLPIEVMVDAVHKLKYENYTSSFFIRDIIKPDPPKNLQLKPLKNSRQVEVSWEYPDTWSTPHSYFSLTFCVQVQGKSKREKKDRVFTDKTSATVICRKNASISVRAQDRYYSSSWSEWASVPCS
Test: RB assay: 125I-hIL-12 binding to PHA blasts
Experimental: PHA blast cells isolated as described above, were washed once and resuspended in binding buffer to a cell density of 2×10⁷ cells/ml. […] The cell pellet was examined for cell bound radioactivity using a gamma counter. […] Incubations were carried out in duplicate.

Binder | IC50
B1 | 400 nM
B2 | 1.6 nM
B3 | 1 nM
B4 | 0.18 nM
B5 | 0.2 nM
B6 | 0.05 nM

Target: T2, recombinant human IL-12 (rhIL-12) (human, UniProt P29459 23-219; P29460 23-328)
T2 construct: disulfide-linked p35/p40 heterodimer (p70); also called IL-12 p70; rec. human IL12
T2 sequence (looked up) 1: T1 sequence (looked up) 1
T2 sequence (looked up) 2: T1 sequence (looked up) 2
Test: BIAcore SPR, IL-12 on chip

Binder | koff
B7 | 0.0054 s⁻¹
B8 | 0.0057 s⁻¹
B9 | 0.0054 s⁻¹
B10 | 0.0054 s⁻¹
B11 | 0.0048 s⁻¹
B12 | 0.0043 s⁻¹
B13 | 5.37 s⁻¹
B14 | 5.51 s⁻¹
B15 | 4.24 s⁻¹
B16 | 5.55 s⁻¹
B17 | 5.69 s⁻¹
B18 | 3.95 s⁻¹

Target: T1, human IL-12
Test: SPR (BIAcore), IL-12 chip
Text: The system utilizes the optical properties of SPR to detect alterations in protein concentrations within a dextran biosensor matrix. Proteins are covalently bound to the dextran matrix at known concentrations. […] To determine the off rate (koff), on rate (kₒₙ), association rate (Ka) and dissociation rate (Kd) constants, BIAcore kinetic evaluation software (version 2.1) was used.

Binder | koff
B1 | 0.0499 s⁻¹
B3 | 0.00089 s⁻¹
B4 | 0.00354 s⁻¹
B5 | 0.001 s⁻¹
B6 | 0.0005 s⁻¹
B19 | 0.00545 s⁻¹
B20 | 0.0024 s⁻¹
B21 | 0.00866 s⁻¹
B22 | 0.00604 s⁻¹
B23 | 0.00295 s⁻¹
B24 | 0.00334 s⁻¹
B25 | 0.00391 s⁻¹
B26 | 0.00242 s⁻¹
B27 | 0.00583 s⁻¹
B28 | 0.00536 s⁻¹
B29 | 0.00397 s⁻¹
B30 | 0.00585 s⁻¹
B31 | 0.00849 s⁻¹
B32 | 0.0442 s⁻¹
B33 | 0.0462 s⁻¹
